Data taken from WO2024096022A1 (dated 2024).

What was measured:
[1] = target: T1, human AdipoR2 protein (human, UniProt Q86V24 1-386); assay: fluorescent ligand binding to cells stably expressing human AdipoR2 (8200 Cellular Detection System)
T1 construct: Stably expressed on CHO cells together with EGFP as a separate expression marker; also called adiponectin receptor 2; hAdipoR2
T1 sequence: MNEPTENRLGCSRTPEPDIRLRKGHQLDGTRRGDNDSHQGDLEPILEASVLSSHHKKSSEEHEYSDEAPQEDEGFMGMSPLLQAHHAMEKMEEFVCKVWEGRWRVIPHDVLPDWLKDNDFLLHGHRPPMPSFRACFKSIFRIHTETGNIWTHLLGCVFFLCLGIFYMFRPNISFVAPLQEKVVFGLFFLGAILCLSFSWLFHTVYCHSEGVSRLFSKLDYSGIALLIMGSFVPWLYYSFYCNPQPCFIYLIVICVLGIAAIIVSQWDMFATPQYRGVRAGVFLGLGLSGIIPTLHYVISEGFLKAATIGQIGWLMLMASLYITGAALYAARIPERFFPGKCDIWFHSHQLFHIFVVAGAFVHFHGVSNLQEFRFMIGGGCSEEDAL

[2] = target: T2, human AdipoR1 protein (human, UniProt Q96A54 1-375); assay: flow cytometry on human AdipoR1-expressing CHO cells against parental CHO cells
T2 construct: Stably expressed on CHO cells together with EGFP as a separate expression marker; also called adiponectin receptor 1; hAdipoR1
T2 sequence: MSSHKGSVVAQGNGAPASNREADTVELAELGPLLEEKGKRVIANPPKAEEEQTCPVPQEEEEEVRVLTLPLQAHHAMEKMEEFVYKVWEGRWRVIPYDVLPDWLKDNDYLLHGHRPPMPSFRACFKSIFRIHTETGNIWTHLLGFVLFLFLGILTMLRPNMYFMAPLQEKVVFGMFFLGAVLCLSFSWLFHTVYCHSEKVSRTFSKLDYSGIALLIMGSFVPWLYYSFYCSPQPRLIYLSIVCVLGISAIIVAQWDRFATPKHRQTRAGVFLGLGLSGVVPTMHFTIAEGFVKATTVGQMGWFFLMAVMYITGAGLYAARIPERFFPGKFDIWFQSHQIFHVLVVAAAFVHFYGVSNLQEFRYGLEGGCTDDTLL

[3] = target: T1, human AdipoR2 protein; assay: flow cytometry on human AdipoR2-expressing CHO cells against parental CHO cells

| Binder | binding result [1] | binding result [2] | binding result [3] |
| --- | --- | --- | --- |
| fluorescently labeled human plasma-derived adiponectin (ligand, UniProt Q15848 19-244, looked up, fluorescent label (site not stated)) ETTTQGPGVLLPLPKGACTGWMAGIPGHPGHNGAPGRDGRDGTPGEKGEKGDPGLIGPKGDIGETGVPGAEGPRGFPGIQGRKGEPGEGAYVYRSAFSVGLETYVTIPNMPIRFTKIFYNQQNHYDGSTGKFHCNIPGLYYFAYHITVYMKDVKVSLFKKDKAMLFTYDQYQENNVDQASGSVLLHLEVGDQVWLQVYGEGERNGLYADNDNDSTFTGFLLYHDTN | binds | – | – |
| mouse-human chimeric antibody WT (antibody, V domains shown) VH: DVKLVESGEGLVKPGGSLKLSCAASGFTFSSYAMSWVRQTPEKRLEWVAYISSGGDYIYYADTVKGRFTISRDNARNTLYLQMSSLKSEDTAMYYCTRALEAMDYWGQGTSVTVSS VL: ETTVTQSPASLSMAIGEKVTIRCITSTDIDDDMNWYQQKPGEPPKLLISEGNTLRPGVPSRFSSSGYGTDFVFTIENMLSEDVADYYCLQSDNLPFTFGSGTKLEIK | – | binds | binds |
